# Positions count from the first letter of the chain named. Numbers in names are those of the source.
# T1: ECD-PRL-R, soluble extracellular domain of the prolactin receptor, Ser-PRLR(1-210) (human, UniProt P16471 25-234)
# T1 construct: range 1-210
# T1 sequence: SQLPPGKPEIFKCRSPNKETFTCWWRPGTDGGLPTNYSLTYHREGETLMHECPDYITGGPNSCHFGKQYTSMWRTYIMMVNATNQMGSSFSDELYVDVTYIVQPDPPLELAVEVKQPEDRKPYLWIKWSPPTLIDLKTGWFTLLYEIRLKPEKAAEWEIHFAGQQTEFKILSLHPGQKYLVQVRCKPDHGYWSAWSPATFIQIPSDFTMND
# T2: Biotinylated prolactin receptor BirATag-Ser-PRLR (1-210) (human, UniProt P16471 25-234, biotinylated (BirA tag, biotin added during expression in E. coli))
# T2 construct: range 1-210; also called BirA-Ser-PRLR (1-210); not shown: BirA tag (biotin acceptor tag)
# T2 sequence: T1 sequence
# B1: vPRL: variant of PRL with amino acid residues 1-11 deleted and the mutations Q12S and G129R (ligand)
# chain: SVTLRDLFDRAVVLSHYIHNLSSEMFSEFDKRYTHGRGFITKAINSCHTSSLATPEDKEQAQQMNQKDFLSLIVSILRSWNEPLYHLVTEVRGMQEAPEAILSKAVEIEEQTKRLLERMELIVSQVHPETKENEIYPVWSGLPSLQMADEESRLSAYYNLLHCLRRDSHKIDNYLKLLKCRIIHNNNC
# B2: PRL S61A, D68N, G71A, Q73A, G129R, K190R (ligand)
# chain: LPICPGGAARCQVTLRDLFDRAVVLSHYIHNLSSEMFSEFDKRYTHGRGFITKAINSCHTASLATPENKEAAAQMNQKDFLSLIVSILRSWNEPLYHLVTEVRGMQEAPEAILSKAVEIEEQTKRLLERMELIVSQVHPETKENEIYPVWSGLPSLQMADEESRLSAYYNLLHCLRRDSHKIDNYLKLLRCRIIHNNNC
# notes: Printed without the prefix Ser-. 'G71A' is copied as printed
# B3: Ser-PRL D68N, E70K, Q73L, G129R, K190R (ligand)
# chain: SLPICPGGAARCQVTLRDLFDRAVVLSHYIHNLSSEMFSEFDKRYTHGRGFITKAINSCHTSSLATPENKKQALQMNQKDFLSLIVSILRSWNEPLYHLVTEVRGMQEAPEAILSKAVEIEEQTKRLLERMELIVSQVHPETKENEIYPVWSGLPSLQMADEESRLSAYYNLLHCLRRDSHKIDNYLKLLRCRIIHNNNC
# B4: Ser-PRL G129R, K190R (ligand)
# chain: B3 chain with N69D, K71E, L74Q
# B5: Ser-PRL S61A, G129R, K190R (ligand)
# chain: B3 chain with S62A, N69D, K71E, L74Q
# B6: Ser-PRL S61A, Q73L, G129R, K190R (ligand)
# chain: B3 chain with S62A, N69D, K71E
# B7: Ser-PRL D68N, Q73L, G129R, K190R (ligand)
# chain: B3 chain with K71E
# B8: Ser-PRL S33A, Q73L, M75T, N76S, F80L, G129R, K190R (ligand)
# chain: B3 chain with S34A, N69D, K71E, M76T, N77S, F81L
# B9: Ser-PRL N31E, G129R, K190R (ligand)
# chain: B3 chain with N32E, N69D, K71E, L74Q
# B10: Ser-PRL S38I, D68N, G129R, I182V (ligand)
# chain: B3 chain with S39I, K71E, L74Q, I183V, R191K
# B11: Ser-PRL S61A, D68N, Q73L, G129R, K190R (ligand)
# chain: B3 chain with S62A, K71E
# B12: Ser-PRL N31R, G129R, K190R (ligand)
# chain: B3 chain with N32R, N69D, K71E, L74Q
# B13: Ser-PRL D68N, G129R, K190R (ligand)
# chain: B3 chain with K71E, L74Q
# B14: Ser-PRL S38I, S61A, D68N, Q73L, G129R, K190R (ligand)
# chain: B3 chain with S39I, S62A, K71E
# B15: Ser-PRL S33A Q73L G129R K190R (ligand)
# chain: B3 chain with S34A, N69D, K71E
# B16: Ser-PRL D68N, G129R (ligand)
# chain: B3 chain with K71E, L74Q, R191K
# B17: Ser-PRL S61A, D68N, G129R, K190R (ligand)
# chain: B3 chain with S62A, K71E, L74Q
# What was measured:
# [1] = molecular target: T1, ECD-PRL-R, soluble extracellular domain …; assay: HX-MS, 6 uM vPRL with or without 12 uM ECD-PRL-R
# Description: Amide hydrogen/deuterium exchange (HX) was initiated by a 10-fold dilution of vPRL in the presence or absence of ECD-PRL-R into a deuterated buffer (i.e. 20 mM Tris, 150 mM NaCl, 99% D₂O, pH 7.4 (uncorrected value)). Non-deuterated controls were prepared by dilution into an identical protiated buffer. All HX reactions were carried out at 30° C. and contained 6 μM vPRL variant in the absence or presence of 12 μM ECD-PRL-R. At appropriate time intervals, aliquots of the HX reaction were quenched by addition of an equal volume of ice-cold quenching buffer (1.25 M Tris(2-carboxyethyl)phosphine hydrochloride, adjusted to pH 2.0 using NaOH) resulting in a final pH of 2.5 (uncorrected value). Quenched samples were immediately frozen in liquid N₂ and stored at −80° C.
# The samples were run on a cooled high pressure liquid chromatography-mass spectrometry system for rapid desalting and mass analysis as described (Rand et al. J. Biol. Chem. 281, 23018 (2006)).
# [2] = molecular target: T2, Biotinylated prolactin receptor …; assay: SPR (Biacore); biotinylated BirATag-Ser-PRLR (1-210) amine-coupled to CM5 chip, variant injected at 3.13-50 nM; STDEV 0.035
# Description: (§1) Biotinylated prolactin receptor BirATag-Ser-PRLR (1-210) was diluted to 20 μg/ml in 10 mM sodium acetate pH 4.0 (Biacore BR-1003-49) and immobilized on a CM5 chip (Biacore BR-1006-68) with the immobilization reagents 1-ethyl-3-(3-dimethylaminopropyl) carbodiimide hydrochloride (EDC), N-hydroxysuccinimide (NHS) and 1.0 M ethanolamine-HCl pH 8.5 (Biacore BR1000-50). The immobilization level was 1500 RU. The PRL variants prepared as described in Example 5 were diluted to a series of concentrations as following: 3.13/6.25/12.5/25/50 nM and run through the PRLR immobilized chip using HBS-EP (10 mM HEPES pH 7.4; 150 mM NaCl; 3 mM EDTA; 0.005% v/v Tween-20) as the running buffer under the following conditions: […]
# [3] = molecular target: T2, Biotinylated prolactin receptor …; assay: SPR (Biacore); biotinylated BirATag-Ser-PRLR (1-210) amine-coupled to CM5 chip, variant injected at 3.13-50 nM; STDEV 0.021
# Description: as §1
# [4] = molecular target: T2, Biotinylated prolactin receptor …; assay: SPR (Biacore); biotinylated BirATag-Ser-PRLR (1-210) amine-coupled to CM5 chip, variant injected at 3.13-50 nM; STDEV 0.11
# Description: as §1
# [5] = molecular target: T2, Biotinylated prolactin receptor …; assay: SPR (Biacore); biotinylated BirATag-Ser-PRLR (1-210) amine-coupled to CM5 chip, variant injected at 3.13-50 nM; STDEV 0.028
# Description: as §1
# [6] = molecular target: T2, Biotinylated prolactin receptor …; assay: SPR (Biacore); biotinylated BirATag-Ser-PRLR (1-210) amine-coupled to CM5 chip, variant injected at 3.13-50 nM; STDEV 0.049
# Description: as §1
# [7] = molecular target: T2, Biotinylated prolactin receptor …; assay: SPR (Biacore); biotinylated BirATag-Ser-PRLR (1-210) amine-coupled to CM5 chip, variant injected at 3.13-50 nM; STDEV 0.057
# Description: as §1
# [8] = molecular target: T2, Biotinylated prolactin receptor …; assay: SPR (Biacore); biotinylated BirATag-Ser-PRLR (1-210) amine-coupled to CM5 chip, variant injected at 3.13-50 nM; STDEV 0.51
# Description: as §1
# [9] = molecular target: T2, Biotinylated prolactin receptor …; assay: SPR (Biacore); biotinylated BirATag-Ser-PRLR (1-210) amine-coupled to CM5 chip, variant injected at 3.13-50 nM; STDEV 0.2546
# Description: as §1
# [10] = molecular target: T2, Biotinylated prolactin receptor …; assay: SPR (Biacore); biotinylated BirATag-Ser-PRLR (1-210) amine-coupled to CM5 chip, variant injected at 3.13-50 nM; STDEV 0.18
# Description: as §1
# [11] = molecular target: T2, Biotinylated prolactin receptor …; assay: SPR (Biacore); biotinylated BirATag-Ser-PRLR (1-210) amine-coupled to CM5 chip, variant injected at 3.13-50 nM; STDEV 0.085
# Description: as §1
# [12] = molecular target: T2, Biotinylated prolactin receptor …; assay: SPR (Biacore); biotinylated BirATag-Ser-PRLR (1-210) amine-coupled to CM5 chip, variant injected at 3.13-50 nM; STDEV 0.3606
# Description: as §1
# [13] = molecular target: T2, Biotinylated prolactin receptor …; assay: SPR (Biacore); biotinylated BirATag-Ser-PRLR (1-210) amine-coupled to CM5 chip, variant injected at 3.13-50 nM; STDEV 0.22
# Description: as §1
# [14] = molecular target: T2, Biotinylated prolactin receptor …; assay: SPR (Biacore); biotinylated BirATag-Ser-PRLR (1-210) amine-coupled to CM5 chip, variant injected at 3.13-50 nM; STDEV 0.0636
# Description: as §1
# [15] = molecular target: T2, Biotinylated prolactin receptor …; assay: SPR (Biacore); biotinylated BirATag-Ser-PRLR (1-210) amine-coupled to CM5 chip, variant injected at 3.13-50 nM; STDEV 0.064
# Description: as §1
# [16] = molecular target: T2, Biotinylated prolactin receptor …; assay: SPR (Biacore); biotinylated BirATag-Ser-PRLR (1-210) amine-coupled to CM5 chip, variant injected at 3.13-50 nM; STDEV 0.56
# Description: as §1
# [17] = molecular target: T2, Biotinylated prolactin receptor …; assay: SPR (Biacore); biotinylated BirATag-Ser-PRLR (1-210) amine-coupled to CM5 chip, variant injected at 3.13-50 nM; STDEV 0.1273
# Description: as §1
binder,measurement,setting,value
B1,binding result,[1],binds
B2,Kd,[2],1.7 nM
B3,Kd,[3],1.2 nM
B4,Kd,[4],5.1 nM
B5,Kd,[5],2.4 nM
B6,Kd,[6],1.3 nM
B7,Kd,[7],1.2 nM
B8,Kd,[8],3.3 nM
B9,Kd,[9],2.7 nM
B10,Kd,[10],2.8 nM
B11,Kd,[11],1.1 nM
B12,Kd,[12],2.01 nM
B13,Kd,[13],2.8 nM
B14,Kd,[14],0.3 nM
B15,Kd,[15],5 nM
B16,Kd,[16],4.9 nM
B17,Kd,[17],2.3 nM
